Data: publication PMC7391724 (Scientific Reports, 2020)
Where two headings read alike, the source gives them in different places.

Key:
[1] = Plasma pharmacokinetics after intravenous EC2629 in rats; type: in vivo; conditions: rat
Experimental: The plasma pharmacokinetics of EC2629 and metabolite EC2491 were evaluated following intravenous administration of EC2629 to male and female rats. The toxicokinetic phase of the study consisted of 5 groups with three animals/gender assigned to the control group, and nine animals/gender assigned to each of the treatment groups. […] Blood samples were collected from Group 0 at 10 min post-dose, and from Groups 1–4 at pre-dose, 2, 10, and 30 min and 1, 2, 8, 12, and 24 h post-dose. Plasma was prepared and analyzed for concentrations of EC2629 and metabolite EC2491. Mean plasma EC2629 and EC2491 concentration–time data for males and females, separately, of Groups 1–4 and were subjected to noncompartmental toxicokinetic evaluations and the results are summarized in Table S3.

[2] = Plasma protein binding (ultrafiltration), mouse; type: in vitro ADME; conditions: 37 °C
Experimental: Plasma ultrafiltration was used for determination of free and protein bound fractions of EC2629 and EC2491. Samples were extracted and analyzed using fit-for-purpose bioanalytical methods. Briefly, 500 nM EC2629 or EC2491 was spiked into plasma maintained at 37 °C prior to plasma ultrafiltration. Plasma spiked with 500 nM EC2629 or EC2491 was allowed to equilibrate at 37 °C for 30 min prior to processing. Next, 50 μL of plasma was transferred to a clean 1.2 mL plate stored at 2–8 °C for further processing. The remaining plasma sample volumes were transferred to 30 Kd MWCO PES filter to generate plasma ultrafiltrate by centrifugation at 10,000×g for 20 min. After which, 50 μL of each plasma ultrafiltrate was transferred to separate wells in a clean 1.2 mL plate. To all spiked plasma samples, 50 μL of blank plasma ultrafiltrate was added. 50 μL of blank plasma was added to all experimental ultrafiltrate samples. These blank matrix additions normalized the matrix effects for protein binding determination. Samples were then extracted using protein precipitation with a 3:1 ratio of acetonitrile after addition of internal standard. The supernatant transferred to a new plate, evaporated, and reconstituted prior to LC–MS/MS analysis.

Plasma stability, mouse = type: in vitro ADME; conditions: 500 nM, 37 °C, 2 h
Experimental: (§1) Whole blood and plasma stability were determined for EC2629 and EC2491 at a concentration of 500 nM. Samples were extracted and analyzed using fit-for-purpose bioanalytical methods. EC2629 or EC2491 was spiked into 1 mL whole blood or plasma maintained at 37 °C for 30 min prior to use . Fifty µl aliquots were then removed at defined timepoints and stored in a 1.2 mL extraction plate prior to analysis. Samples were then extracted using protein precipitation with a 3:1 ratio of acetonitrile after addition of internal standard. The supernatant was then transferred to a new plate, evaporated, and reconstituted prior to LC–MS/MS analysis.

[3] = Whole blood stability, dog; type: in vitro ADME; conditions: 37 °C, after two hours, read-out: percent remaining in whole blood
Experimental: as §1

[4] = 0.1 mg/kg, 0.10 mg/kg iv, female, Group 2
[5] = 0.1 mg/kg, 0.10 mg/kg iv, male, Group 2
[6] = 0.5 mg/kg, 0.50 mg/kg iv, female, Group 4
[7] = 0.5 mg/kg, 0.50 mg/kg iv, male, Group 4

Molecule `C=C1C[C@H]2C=Nc3cc(OCCCCCOc4cc(N)c(C(=O)N5CC(=C)C[C@H]5C5OCCN5C(=O)OCC(C)(C)SSCCC(=O)NCCNC(=O)CCOCCOCCOCCOCCNC(=O)CCN5C(=O)CC(SC[C@H](NC(=O)[C@H](CC(=O)O)NC(=O)[C@H](CC(=O)O)NC(=O)[C@H](CCCNC(=N)N)NC(=O)[C@H](CC(=O)O)NC(=O)CC[C@H](NC(=O)c6ccc(NCc7cnc8nc(N)[nH]c(=O)c8n7)cc6)C(=O)O)C(=O)O)C5=O)cc4OC)c(OC)cc3C(=O)N2C1` (stereo partly drawn) [EC2629] has a clearance ([1]; both sexes, across 0.05-0.50 mg/kg iv dose groups, males and females, read-out: Clearance (Cl), range) of 1.51 to 2.9 mL/min/kg, a Vd ([1]; both sexes, across 0.05-0.50 mg/kg iv dose groups, males and females, read-out: volume of distribution (Vz), range) of 0.109 to 0.191 L/kg and an AUC(0-inf) ([1]; 0.05 mg/kg iv, female, Group 1) of 287 ng·h/mL. It also gave an AUC(0-t) ([1]; 0.05 mg/kg iv, female, Group 1) of 260 ng·h/mL, a C0 ([1]; 0.05 mg/kg iv, female, Group 1) of 662 ng/mL and a Cmax ([1]; 0.05 mg/kg iv, female, Group 1) of 545 ng/mL. For the same molecule, the Tmax ([1]; 0.05 mg/kg iv, female, Group 1) was 1.98 min, the half-life ([1]; 0.05 mg/kg iv, female, Group 1) was 37.6 min and the clearance ([1]; 0.05 mg/kg iv, female, Group 1, read-out: Cl (converted)) was 2.9 mL/min/kg. For the same molecule, the Vd ([1]; 0.05 mg/kg iv, female, Group 1, read-out: Vz) was 0.157 L/kg, the AUC(0-inf) ([1]; 0.05 mg/kg iv, male, Group 1) was 384 ng·h/mL and the AUC(0-t) ([1]; 0.05 mg/kg iv, male, Group 1) was 305 ng·h/mL. It also gave a C0 ([1]; 0.05 mg/kg iv, male, Group 1) of 669 ng/mL, a Cmax ([1]; 0.05 mg/kg iv, male, Group 1) of 595 ng/mL and a Tmax ([1]; 0.05 mg/kg iv, male, Group 1) of 1.98 min. The half-life ([1]; 0.05 mg/kg iv, male, Group 1) was 61.2 min, the clearance ([1]; 0.05 mg/kg iv, male, Group 1, read-out: Cl (converted)) was 2.17 mL/min/kg and the Vd ([1]; 0.05 mg/kg iv, male, Group 1, read-out: Vz) was 0.191 L/kg. It also gave an AUC(0-inf) [1, 4] of 633 ng·h/mL, an AUC(0-t) [1, 4] of 596 ng·h/mL and a C0 [1, 4] of 1570 ng/mL. For the same molecule, the Cmax [1, 4] was 1330 ng/mL, the Tmax [1, 4] was 1.98 min and the half-life [1, 4] was 31.5 min. It also gave a clearance ([1]; 0.1 mg/kg, 0.10 mg/kg iv, female, Group 2, read-out: Cl (converted)) of 2.63 mL/min/kg, a Vd ([1]; 0.1 mg/kg, 0.10 mg/kg iv, female, Group 2, read-out: Vz) of 0.12 L/kg and an AUC(0-inf) [1, 5] of 699 ng·h/mL. For the same molecule, the AUC(0-t) [1, 5] was 617 ng·h/mL, the C0 [1, 5] was 1690 ng/mL and the Cmax [1, 5] was 1390 ng/mL. It also gave a Tmax [1, 5] of 1.98 min, a half-life [1, 5] of 42.4 min and a clearance ([1]; 0.1 mg/kg, 0.10 mg/kg iv, male, Group 2, read-out: Cl (converted)) of 2.38 mL/min/kg. For the same molecule, the Vd ([1]; 0.1 mg/kg, 0.10 mg/kg iv, male, Group 2, read-out: Vz) was 0.146 L/kg, the AUC(0-inf) ([1]; 0.25 mg/kg iv, female, Group 3) was 1750 ng·h/mL and the AUC(0-t) ([1]; 0.25 mg/kg iv, female, Group 3) was 1640 ng·h/mL. The C0 ([1]; 0.25 mg/kg iv, female, Group 3) was 3740 ng/mL, the Cmax ([1]; 0.25 mg/kg iv, female, Group 3) was 3230 ng/mL and the Tmax ([1]; 0.25 mg/kg iv, female, Group 3) was 1.98 min. It also gave a half-life ([1]; 0.25 mg/kg iv, female, Group 3) of 31.8 min, a clearance ([1]; 0.25 mg/kg iv, female, Group 3, read-out: Cl (converted)) of 2.38 mL/min/kg and a Vd ([1]; 0.25 mg/kg iv, female, Group 3, read-out: Vz) of 0.109 L/kg. For the same molecule, the AUC(0-inf) ([1]; 0.25 mg/kg iv, male, Group 3) was 1930 ng·h/mL, the AUC(0-t) ([1]; 0.25 mg/kg iv, male, Group 3) was 1670 ng·h/mL and the C0 ([1]; 0.25 mg/kg iv, male, Group 3) was 4310 ng/mL. For the same molecule, the Cmax ([1]; 0.25 mg/kg iv, male, Group 3) was 3580 ng/mL, the Tmax ([1]; 0.25 mg/kg iv, male, Group 3) was 1.98 min and the half-life ([1]; 0.25 mg/kg iv, male, Group 3) was 46.2 min. The clearance ([1]; 0.25 mg/kg iv, male, Group 3, read-out: Cl (converted)) was 2.15 mL/min/kg, the Vd ([1]; 0.25 mg/kg iv, male, Group 3, read-out: Vz) was 0.144 L/kg and the AUC(0-inf) [1, 6] was 3540 ng·h/mL. For the same molecule, the AUC(0-t) [1, 6] was 3230 ng·h/mL, the C0 [1, 6] was 7060 ng/mL and the Cmax [1, 6] was 6070 ng/mL. The Tmax [1, 6] was 1.98 min, the half-life [1, 6] was 36.7 min and the clearance ([1]; 0.5 mg/kg, 0.50 mg/kg iv, female, Group 4, read-out: Cl (converted)) was 2.35 mL/min/kg. It also gave a Vd ([1]; 0.5 mg/kg, 0.50 mg/kg iv, female, Group 4, read-out: Vz) of 0.125 L/kg, an AUC(0-inf) [1, 7] of 5510 ng·h/mL and an AUC(0-t) [1, 7] of 5450 ng·h/mL. For the same molecule, the C0 [1, 7] was 8450 ng/mL, the Cmax [1, 7] was 7080 ng/mL and the Tmax [1, 7] was 1.98 min. It also gave a half-life [1, 7] of 84 min, a clearance ([1]; 0.5 mg/kg, 0.50 mg/kg iv, male, Group 4, read-out: Cl (converted)) of 1.51 mL/min/kg and a Vd ([1]; 0.5 mg/kg, 0.50 mg/kg iv, male, Group 4, read-out: Vz) of 0.183 L/kg. For the same molecule, the fraction unbound at 30 min, 500 nM [2] was 0.051, the plasma stability (Plasma stability, mouse) was “stable” and the remaining at 2 h, 500 nM [3] was 75.8%.
